In patent publication US20160326233A1:

Molecular target: HBsAg on purified human serum HBV (virions used in the Tupaia hepatocyte neutralization assay) (Hepatitis B virus)
Experiment: cell-based or functional assay

neutralization of HBV infection of primary Tupaia hepatocytes (newly produced HBsAg): 100 µg/mL
neutralization of HBV infection of primary Tupaia hepatocytes (newly produced HBsAg) (reciprocal dilution): 10
Substance: mouse monoclonal antibody MA18/7
